The test system of test [1] is breast cancer samples cultured in 3D culture. Put plainly: Tamoxifen sensitivity of breast cancer samples in 3D culture (CellTiter-Glo on intact gels). It is filed as cell-based, human. The conditions noted are these: 48 hours of treatment; ER-positive cancer cells. How it is done:
(§1) Shown are cell counts for each dose of drug following 48 hours of treatment. Cells were counted using CellTiter-Glo assay performed on intact gels. […] Both cultures were grown in hydrogel culture for nine days with 40 ng/mL nerve growth factor.
(Cellular ATP, detected with luciferase, serves as a proxy for viable cell number.)

Test [2] has as its system mouse dorsal root ganglia neurons. Put plainly: Growth of dorsal root ganglia neurons in hydrogels with nerve growth factor. Conditions: 40 ng/mL NGF; nine days. It is filed as cell-based. As for the experimental part: as §1
Mouse dorsal root ganglia were collected and either dissociated into single cells (FIG. 22A) or kept intact (FIG. 22B), and seeded into hydrogels containing no growth factors aside from 40 ng/mL nerve growth factor (NGF). They were cultured in 50% DMEM, 50% F12 growth media supplemented with 10% heat-inactivated fetal bovine serum and 40 ng/mL NGF. The cultures were grown for nine days, at which point they were fixed and stained for the expression of the sodium channel NaV1.7 (a marker of nociceptive neurons) and the DNA dye DAPI.

In test [3] the test system is breast tissues cultured in hydrogel scaffolds. Put plainly: Morphological response to hormones of breast tissues cultured in hydrogel scaffolds. It is filed as cell-based, human. From the text:
FIG. 1A is a schematic representation of hydrogel assembly. FIG. 1B depicts representative bright-field images of tissue growth after ten days in Matrigel, polymerized collagen or the presently disclosed three-dimensional hydrogels (e.g., in the absence of BPE), alongside carmine stained mammary tissue sections from independent reduction mammoplasty patients. […] FIG. 1E depicts schematic and representative images showing the effect of pituitary hormones (0.4% bovine pituitary extract [BPE]) and 1 μg/mL recombinant human prolactin administration on the development of tissue structures grown in the presently disclosed three-dimensional hydrogels. BPE was added at seeding (D0) and prolactin at two weeks (N=4, 7 and 14, 1 resp). Bottom left images show representative architecture prior to the administration of prolactin. […] Error bars represent SEM.
Distance of the section from the surface of the structure is indicated. Scale bars are 200 μm.
We next assessed if breast tissues cultured in hydrogel scaffolds respond to steroid, pituitary, or lactogenic hormones, which are known to stimulate the development of mammary epithelial tissue in vivo.

Entries after “also recorded” stand apart in the source; their conditions may differ.

As for `CC/C(=C(\c1ccccc1)c1ccc(OCCN(C)C)cc1)c1ccccc1` [tamoxifen], the “sensitivity / responsiveness to tamoxifen (cell counts)” value in test [1] was “consistently responsive; also recorded: exhibit sensitivity”.
In the case of “nerve growth factor: nerve growth factor, 40 ng/mL in hydrogel and medium”, in test [2], the “neuron survival and growth of axons and dendrites” value was “survive and grow new axons and dendrites”.

B1: prolactin: lactogenic hormone; 1 μg/mL recombinant human prolactin (protein, UniProt P01236 29-227, looked up)
Prolactin: LPICPGGAARCQVTLRDLFDRAVVLSHYIHNLSSEMFSEFDKRYTHGRGFITKAINSCHTSSLATPEDKEQAQQMNQKDFLSLIVSILRSWNEPLYHLVTEVRGMQEAPEAILSKAVEIEEQTKRLLEGMELIVSQVHPETKENEIYPVWSGLPSLQMADEESRLSAYYNLLHCLRRDSHKIDNYLKLLKCRIIHNNNC
Take B1: the “increase in lobular volume” value in test [3] (1 μg/mL recombinant human prolactin added at two weeks, day 21) is listed as 4 fold. The “lipid droplets / lipid content (H&E, oil red O staining)” value in test [3] (prolactin 1 μg/mL) is “formation of large lipid droplets; also recorded: lipid rich; also recorded: Lipid droplets can be seen”. For the same molecule, the “formation of milk-like opaque substance in lumens” value in test [3] (prolactin after 2 weeks of estrogen and progesterone) is “promotes the formation of an opaque substance that fills the luminal space of the structures”.
